The DeepSol protein solubility set

Assay: soluble on expression in E. coli; label from the status in PepcDB or PDB records

**Q.** With “MGSDKIHHHHHHMKLNHRQLEAFRAMIETGSVTEASKRIGVTQPAASRLISDLEYAIGYALFLREKKRLTPTPEAMALFEEVDRSYIGLGLIGDAARDIGANRRGALRIASLPAMALSFLPKVISKFCEDKPDISVDMQIHSSQRVIQCVASQQFDLGFAEIDSLHPAVKSQAFFESPMVAILPKHHPLCRKATLTPQDFSNENFIALGSNYTMRKRIDALFLANNITRKIQIETQLSMAVANLVASGAGVSIIEALTASSFRGLNLVEARPFLPEITYTYRVLSPAHRPISLLTASFINATRDALMKFDVSGHAL” as the sequence, how does the “soluble on expression in E. coli” value read?
**A.** not soluble

**Q.** Which “soluble on expression in E. coli” value does the source give for “SPEALRIGYQKGSIGMVLAKSHQLLEKRYPESKISWVEFPAGPQMLEALNVGSIDLGSTGDIPPIFAQAAGADLVYVGVEPPKPKAEVILVAENSPIKTVADLKGHKVAFQKGSSSHNLLLRALRQAGLKFTDIQPTYLTPADARAAFQQGNVDAWAIWDPYYSAALLQGGVRVLKDGTDLNQTGSFYLAARPYAEKNGAFIQGVLATFSEADALTRSQREQSIALLAKTMGLPAPVIASYLDHRPPTTIKPVNAEVAALQQQTADLFYENRLVPKKVDIRQRIWQPTQLEGKQLEFRVPGNENLYFQ” here?
**A.** soluble

**Q.** For “MVAENQPGHIDQIKQTNAGAVYRLIDQLGPVSRIDLSRLAQLAPASITKIVREMLEAHLVQELEIKEAGNRGRPAVGLVVETEAWHYLSLRISRGEIFLALRDLSSKLVVEESQELALKDDSPLLDRIISHIDQFFIRHQKKLERLTSIAITLPGIIDTENGIVHRMPFYEDVKEMPLGEALEQHTGVPVYIQHDISAWTMAEALFGASRGARDVIQVVIDHNVGAGVITDGHLLHAGSSSLVEIGHTQVDPYGKRCYCGNHGCLETIASVDSILELAQLRLNQSMSSMLHGQPLTVDSLCQAALRGDLLAKDIITGVGAHVGRILAIMVNLFNPQKILIGSPLSKAADILFPVISDSIRQQALPAYSQHISVESTQFSNQGTMAGAALVKDAMYNGSLLIRLLQG”, which “soluble on expression in E. coli” value is on record?
**A.** soluble

**Q.** For “MPRELGESLELRKGRHSVVYLTEKYAIKQFHERFRYNFLKEVKFLTLLQPFFFTPKLYFVDFANLRIVMERLRGRRFDEAFIRKAVERALEACFIMDVMGVEKQEMNHPDKHIIVGDDVYLIDFERARFKDRPSNLTQFCMYLRRFGIEIEKTLLKDYKTSVNCENFSRILHSVVEKLK”, which “soluble on expression in E. coli” value is on record?
**A.** not soluble

**Q.** For “MGSDKIHHHHHHMVATENRMLMEIAAEISAREATLGFQEVKTKSRSAGLTAAFDIASVFFSSGCNVVVAFDRFASNWSDHSDHVDYAAQVAGFGASMLAYTVRRGQFDTAVRDIRDIKSEVDIPILLHDPIIDPYQIHEARVMGIDALQFPVWAMEQARLESLVDRTESLGMTAIVSVRNHEEAHRAVDAGATVVAIDITGYTGSLTLPEAFSGITQFMPKEVARIVLGGCSSPKELMRFARHSADAIFVPHADLATTKSLVTAGMHPACPSR”, which “soluble on expression in E. coli” value is on record?
**A.** not soluble

**Q.** Which “soluble on expression in E. coli” value does the source give for “MGSDKIHHHHHHMIMIRQLTPADFDAVITLGEIVHGSGYMDIAELTAIYHKGIKNGINANFVALENEQLIGFRLTYAAGQWPQDQWCTVDKWGVKFEDVCYFKSNTIAESGRGQGLGGKLLAASKAAVIAQGAKAGVSHLWQQSPNNAAVRYFTKAGGKLIKQHPQRWHQRYMGDDYICVLCGEDCHCVACEMLLLF” here?
**A.** not soluble

**Q.** With “MGSDKIHHHHHHMIKRLKIKNFKSYRDSEFEFEKVSIVVGPNGSGKTNLVDAFSFLKQLIRPLSYPPYPFIRWGDYKNVVFMQDENLDISFEIDGEYKGKDYHYEISLNKLQIKKEIINFDSYSMERRGNVIRYENKEMTIPDNLSVFNLFFAQPFIIAYNLNFTLPPELLNFMTNFLNDVGVFRIVPQIAVSPVHFTFPEALDENGRGLVKVISNNLSRINETKQVYDFLVENNISLRPVFTEDGNIRLHFIEKSENNKELILLPASVPDGFIKMLTIIIAVYLLKMSTIIIDEIENSLHLKYIERLVDIMRYSDSQFIATTHSPLIIDFMDPFRNNNS” as the sequence, how does the “soluble on expression in E. coli” value read?
**A.** not soluble

**Q.** For “MGSDKIHHHHHHMNFLAHLHLADNSKTDLAANLAGDFAKGNIADHPKALQQGIWLHRQIDSLTDSHELTKELKAAFPKTLQRAAPILIDLAFDHMLAKYWEEYHHLSLPDFAQQAYLALSSAEQLPVNLSDLIIRMRQENWLIAYESREGLNQTIKAVSKRVSKPEIFDGAIDTVKRMDTEIEIAFRTFYPQLMAYSRIWTRQTPPEFL”, which “soluble on expression in E. coli” value is on record?
**A.** not soluble

**Q.** Which “soluble on expression in E. coli” value does the source give for “MTAILLHNVAKSYRSYDHPWETLWEVFTKTRRHREWTALHPLSLEIAHGEVVGIVGTNGAGKSTLLKLIAGTLTPSAGDIRVNGHVAALLELGAGFHPDMTGRENVYLGASVMGLSSERVDRLYDGIVEFAGLGEFMDQPVKTYSSGMYMRLAFAVATAADPDVLILDEALSVGDGAFARKSFERIIGYKDAGKTILFCSHSLYQVEAICSRVLWLDHGRLVMDGEPARVVSAYAEFLGGGGEGCGTPDQPAPAAVAGSGVGRLTKVEVEADGVEGRKLTVRSGQTDLTVAVGFASDPALPPPSVGLTITGSNGWAVTSASTSNDGLTISRRPDGSGEVELSFPRFPLLKGAYWVNVFLLCEQGIHLYDRIEHAAELEVVQDGLEQGVVSLPRRWSVNGAPASAVSPTVPTVAAWLEHHHHHH” here?
**A.** not soluble

**Q.** For “MQLKGKTAIVTGSSRGLGKAIAWKLGNMGANIVLNGSPASTSLDATAEEFKAAGINVVVAKGDVKNPEDVENMVKTAMDAFGRIDILVNNAGITRDTLMLKMSEKDWDDVLNTNLKSAYLCTKAVSKIMLKQKSGKIINITSIAGIIGNAGQANYAASKAGLIGFTKSIAKEFAAKGIYCNAVAPGIIKTDMTDVLPDKVKEMYLNNIPLKRFGTPEEVANVVGFLASDDSNYITGQVINIDGGLVM”, which “soluble on expression in E. coli” value is on record?
**A.** soluble

**Q.** Which “soluble on expression in E. coli” value does the source give for “MVARIYRPAKTAMQSGKAKTDQWLLEYEPEKPRVVEPLMGYTSSGDMKSQIRLFFASQEEAVAYATRNDIPYRLMEPHEPKRRKVSYSDNFRFDRPQPWTHLEHHHHHH” here?
**A.** not soluble

**Q.** With “AAHQLTIVHLEARDIDRPNPQLEIAPKEGTPIEGVLYQLYQLKSTEDGDLLAHWNSLTITELKKQAQQVFEATTNQQGKATFNQLPDGIYYGLAVKAGEKNRNVSAFLVDLSEDKVIYPKIIWSTGELDLLKVGVDGDTKKPLAGVVFELYEKNGRTPIRVKNGVHSQDIDAAKHLETDSSGHIRISGLIHGDYVLKEIETQSGYQIGQAETAVTIEKSKTVTVTIENKKVPTPKVPSR” as the sequence, how does the “soluble on expression in E. coli” value read?
**A.** soluble

**Q.** For “MAHTKKRIFDGLYAQLEETDGNVVLFSAKGEPSVIFEITNPVQQLCTDAEQYMLFQDVLSNVVQTLGEGYALQKQDVLCKQSYHHEVPEDAEFLTKSYFRYFEGREFTEIRTYLILTQEAQRSQFVQYDPKKWLDFHSKVSKVSDILKEKNIKYRKLSKEEVNEYCHRFMAFQFRHGPFSMTNFKASDEYLKIGDRVVRSYPLVDIDEINLPSLVKPYTQMNINGYGIATDLFSFLTSVPHADCVVFNQVVQIPNQRKLLRKLQAKAKRHGSMPDPSNKIAKEDIEEVLDRLAVDSTQLVYCNFNILVSCLVDKVTPVTSYLETKLYECGIMPSRTAYNQLELFTDSFPGNGYAFNPDYDLFLTLSDVALCFFFKEHLKGSEDTPLTTYYTDRQGLPVCIDITGKEGKVKMTDNANFFCIGPSGSGKSFHMNSVVRQLLEQNTDVVMVDTGDSYEGICGYYKGTYISYSKEKPISMNPFKVTKEEYDLNFGEKKNFLKSLIFLIFKGNEFPSKIEDMLINQTIVEYYEAYFHPFTKFTEKEREGLRQKLLVASKMEEDYDKFSHSMEDIDAQIREAEMDKQAESRALMLPAEARRLKLLRQCRSLYALAQDEAASKGEKERALQIIENYKKELYNNSMLIKIDKQIDHIEEQKRRLKVRVLSFNSYYEFALERIPQIVAQEKIQFNIRDFAAILKQFYRGGELEMTLNSDLNVNLFDEQFIVFEIDKIKDDPVLFPIVVLIIMDVFLQKMRIKKGRKALIIEEAWL”, which “soluble on expression in E. coli” value is on record?
**A.** not soluble

**Q.** Which “soluble on expression in E. coli” value does the source give for “MTPRKPAVKKEVKEEEPGAPGKEGAAEGPLDPSGYNPAKNNYHPVEDACWKPGQKVPYLAVARTFEKIEEVSARLRMVETLSNLLRSVVALSPPDLLPVLYLSLNHLGPPQQGLELGVGDGVLLKAVAQATGRQLESVRAEAAEKGDVGLVAENSRSTQRLMLPPPPLTASGVFSKFRDIARLTGSASTAKKIDIIKGLFVACRHSEARFIARSLSGRLRLGLAEQSVLAALSQAVSLTPPGQEFPPAMVDAGKGKTAEARKTWLEEQGMILKQTFCEVPDLDRIIPVLLEHGLERLPEHCKLSPGIPLKPMLAHPTRGISEVLKRFEEAAFTCEYKYDGQRAQIHALEGGEVKIFSRNQEDNTGKYPDIISRIPKIKLPSVTSFILDTEAVAWDREKKQIQPFQVLTTRKRKEVDASEIQVQVCLYAFDLIYLNGESLVREPLSRRRQLLRENFVETEGEFVFATSLDTKDIEQIAEFLEQSVKDSCEGLMVKTLDVDATYEIAKRSHNWLKLKKDYLDGVGDTLDLVVIGAYLGRGKRAGRYGGFLLASYDEDSEELQAICKLGTGFSDEELEEHHQSLKALVLPSPRPYVRIDGAVIPDHWLDPSAVWEVKCADLSLSPIYPAARGLVDSDKGISLRFPRFIRVREDKQPEQATTSAQVACLYRKQSQIQNQQGEDSGSDPEDTY” here?
**A.** soluble

**Q.** Which “soluble on expression in E. coli” value does the source give for “MYVTVTEAAYKKIMDTIPSEAKYIKLFYDNEGCGCVMSGIIDLVAVAEKDERDVDIESSTMNFIADRTKLVFMDDKLTVDWHEGGGTFQLKSPSQFYNPNMKLHVRVLEHHHHHH” here?
**A.** soluble

**Q.** Which “soluble on expression in E. coli” value does the source give for “MAHHHHHHMVLPLPKLIQSNEGRVLYHVTNHPIRTIKKKIEGFFKYESLDNLNSEISVRQNFDELFVPLTHPARNIKDTFYLSENYVKHFSTLHNNLYTQLENTNGIYKYYLVTKFVHHHNILLKRTHMTAHLPDLLRRNYKNVIYTGSVYRRDEIDRFHFPIFHQTDGFLIRPDNFDVETDLKKNLEQLIRYLFDASDVQMKWEDNTSFPFTDPSYELYIRGESSKEIRTTGDDIGGESRWVEVLGCGKIKKEVIAMAMHAEDIRQIIEDEIARHDRGLLDELQSIETAVNEAAVNEAAVNEGATNEGAVNEGATNEAVARKSNVEWIYPNVPTPKDILDKLCTTTLNNRIEAQMNKFLKTIRYQGWAFGIGLERLAMLLYHIQDIRLFWSNDNRFIDQFEEGVITTFHPFSNFPPVEKDISFYITSQFKEDLFFQICRDVASENIEQVKKIDSYHNPKNNQTSVCYRITYRSHTQNLTHKTVNEMQSKIVQMLVKQCAVTIR” here?
**A.** not soluble

**Q.** Which “soluble on expression in E. coli” value does the source give for “VTDMNPDIEKDQTSDEVTVETTSVFRADFLSELDAPAQAGTESAVSGVEGLPPGSALLVVKRGPNAGSRFLLDQAITSAGRHPDSDIFLDDVTVSRRHAEFRLENNEFNVVDVGSLNGTYVNREPVDSAVLANGDEVQIGKFRLVFLTGPKQGEDDGSTGGP” here?
**A.** soluble

**Q.** With “MSLEQLLTNYSIETQTKSCEDFAFRIGFNDIKYMGGVSESAKDGNRKIYNEMLRYAMDKRNNIQAIIVYSMDRFSRHLASAAPDIEKLNKKNIILYSVQEQISSNDDMGIHFMNFKLSSSQFENRLRSSRARDGVRNRILMGKYPFATPPIGYNKDSDKNLVINEDGELLRKAFKMLLDGYSMMHIMKVMSRYGIIKPVNRWGEIFRNPIYAGLIVSKTNDNKPIKGIHQPIVSEKDFYKLQGIFEFKSKPRLKETDTIDIFPLKTLLQCPNGHGRLTGDIKKTKKNQPAYYKCNKCSFTASAQKANNAFLNLLSVVEFNQVFKDEFKEILDAVFENTFQEMTVKKNKLAREISIKETQLTNLFDAKFAEKINENKFEILSAKYTQSLEDMQKQLVFVTAELPEKKTFIEDCLIDLNNFEKLWDVAEYMDKQQIFNTIFKEKPSIVNNNHKIGLSNISLNPAFRSNLVELVHRKAIITGNYEGHHHHHH” as the sequence, how does the “soluble on expression in E. coli” value read?
**A.** not soluble

**Q.** Which “soluble on expression in E. coli” value does the source give for “MIHLYDAKSFAKLRAAQYAAFHTDAPGSWFDHTSGVLESVEDGTPVLAIGVESGDAIVFDKNAQRIVAYKEKSVKAEDGSVSVVQVENGFMKQGHRGWLVDLTGELVGCSPVVAEFGGHRYASGMVIVTGKGNSGKTPLVHALGEALGGKDKYATVRFGEPLSGYNTDFNVFVDDIARAMLQHRVIVIDSLKNVIGAAGGNTTSGGISRGAFDLLSDIGAMAASRGCVVIASLNPTSNDDKIVELVKEASRSNSTSLVISTDVDGEWQVLTRTGEGLQRLTHTLQTSYGEHSVLTIHTSKQSGGKQASGKAIQTVIKNDELESVLRRLTSN” here?
**A.** soluble
